Test: yeast display, Sf9 membrane polyspecificity reagent, FACS + sequencing; frameworks hold sequencing errors
Outline: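 Sorting gates, low and high (top ~1%), were placed on anti-HA fluorescence to track expression and on streptavidin fluorescence to track reagent binding. A clone's polyreactivity label is taken from the gate it came out of. The reagent was 10% biotinylated, detergent-solubilized Sf9 membrane, applied for 1 hour at 4 °C to galactose-induced yeast display cells.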

Row | Sequence | polyreactivity (PSR sort gate)
1 | QVQLVESGGGIVQAGGSLRLSCAASGGIFFPNAMGWYRQAPGKERELVAAISWSAGSTYYADSVKVRFTISRDNAKNTVYLKKISLIPEDTAVYYCAAAGSNYTVWYGYYYWGQGTQVTVSS | low polyreactivity
2 | QVQLVESGGGLVQAGGSLRLSCAASGSTISRNAMGWYRQAPGKERELVAAITSRSGRTYYADSVKGRFTISRDNAKNTVYLQMNSLKPEDTAVYYCAATVYQGAYTYQFYWGQGTQVTVSS | high polyreactivity
3 | QVQLEDSGGGLVQAGGSLRLSCAASGSTFLYYARGWYRQAPGKERELVAAITSGGSTYYADSVKGRFTISRDNAKNTVYLQMNSLKPEDTAVYYCAAASRRGYYYWGQGTQVTVSS | high polyreactivity
4 | QVQLVESGGGLVQAGGSLRLSCAASGRTFSYNAMGWYRQAPGKERELVAVISASGGSTYYADSVKGRFTISRDNAKNTVYLQMNSLKPEDTAVYYCAKRRSPVERYDYWGQGTQVTVSS | low polyreactivity
5 | QVQLVESGGGLVQAGGSLRLSCAASVRTFGQNTMGWYIQAPGKEREFVAAIDFNGGSTYYADSVKGRFTISRDNAKNTVYLQMNSLKPEDTAVYYCAADIYFYYYGSYDYWGQGTQVTVSS | low polyreactivity
6 | QVQLVESGGGLVQAGGSLRLSCAASGFIFADYAMGWYRQAPGKERELVAAITRGGITYYADSVKGRFTISRDNAKNTVYLQMNSLKPEDTAVYYCAVDPSPRSYYNYYWGQGTQVTVSS | high polyreactivity
7 | QVQLVESGGGLVQAGGSLRLSCAASGFTFRWNGMGSYRQAPGKERELVAAISYDGTGTYYADSVKGRFTISRDNAKNTVYLQMNSLKPEDTAVYYCAKTYRDDTSLSGFDSWGQGTQVTVSS | high polyreactivity
8 | QVQLVESGGGLVQAGGSLRLSCAASGTTFDVYAMGWYRQAPGKERELVAAISTRGTRTYYADSVKGRFTISRDNAKNTVYLQMNSLKPEETAVYYCAAYVYDGETVSRFDYWGQGTQVTVSS | high polyreactivity
9 | QVQLVESGGGLVQAGGSLRLSCAASGSIFYGYTMGWYRQAPGKERELVAGITRSGTSTYYADSVKGRFTISRDNAKNTVYLQMNSLNPQDTAVYYCARVGLSKRYGSWGQGTEVTVSS | high polyreactivity
10 | QVHLVESGGVLVQAGGRHRISCAASGRTFIQNAMGWYRQAPGKERELVAAISWSGGSTYYADSVKGRFTISRDNAKNTVYLQMNSLKPADTAVSYCAAETYDYLFHTYEYWGQATQVTVSS | low polyreactivity
11 | QVQLVESWGGLVQAGGSLPLRCAASGRTFVQYAMGWYRQAPGKERELVAAISLSGGRTYYADSVKGRFTISRDNAKNTVYLQMNSLKPEDTAVYYFSARDSSRYYWGQGTQVTVSS | high polyreactivity
12 | QVQLVESGGGLVQAGGSLRLSCAASGSIFDVNTMGWYSQAPGKERELVAGITSRGGSTYYADSVKGRFTISRDNAKNTVYLQMNSLKPEDTAVYYCAKRAYGTALYRGYGYWGQGTQVTVSS | low polyreactivity
13 | QDQLVESGGGLVQAGGSLRISSAASGRTYKSNAMGWYRQAPGKERELVATISRGGGSTYYADSVKGRFTISRDNAKNTVYLQMNSLKPEDTAVYYCAKGSNSYLRYHYTYPYDYWGQGTQVTVSS | high polyreactivity
14 | QVQLVESGGGLVQAGGSLRLSCAASGSIFAGYAMGWYRQAPGKERELVAAISKSAGSTYYADSVKGRFTISRDNAKNTVYLQMNSLKPEDTAVYYCAARTFNTYPRYYYWGQGTQVTVSS | high polyreactivity
15 | QVQLVESGGGLVQAGGSLRLSCAASGSIFYPYAMGWYRPAPGKERELVASITINDGSTYYADSVKGRFTISRDNAKNTVYLQMNSLKPEDTAVYYCNVEPVPGFGSEYEYWGQGTQVTVSS | low polyreactivity
16 | QVQLVESGGGLVQAGGSLRLSCAASGRIFKSYAMGWYRQAPGKERELVAAISSGDDTYYADSVKGRFTISRDNAKNTVYLQMNSLKPEDTAVYYCAADYWGWLYLYGDYLVDYWGQGTQVTVSS | low polyreactivity
17 | QVQLVESGGGLVQEGGSLRLSCAASGSIFFPYAMGWYRQAPGKEREFFADITWSGGSTYYADSVKGRFTISRDNAKNTVYLQMNSLKPEDTAVYYCNTDYYLLSVVWFSYTLYEYWGQGTQVTLSS | high polyreactivity
18 | QVQLEESGGGLVQPGGSLRLSCAASGTTIGHNAMGLYREAPGKERELVAAISNSGTRTYYADSVKGRFTISRDNAKNTVYLQMNILKPEDTAVYDCAARYYHIYTKYLQGSDYWGQGTQVTVSS | high polyreactivity
19 | QVQLVESGGGLVQAGGSLRLSCAASGFTIYLYTMGWYRQAPGKERELVAAITSSGTRTYYADSVKGRFTISRDNAKNTVYLQMNSLKPEDTAVYYCNAARYGRHLSTYDYWGQGTQVTVSS | high polyreactivity
20 | QVQLVESGGGLVQAGGSLRLSCAASGRIFAWNAMGWYRQAPGKERELVAAITRGTNTYYADSVKGRFTISRDNAKNTVYLQMNSLKPEDTAVYYCAARLPYNAIGYYYWGQGTQVTVSS | low polyreactivity
21 | QVQLVESGGGLVQAGGSLRLSCAASGFTFRRNAMGWYRQAPGKEMELVASISSRGGITYYADSVKGRFTISRDNAKNTVYLQMNSLNPEDTAVYYCAVRFSRYTSNWRQSYDYWGQGTQVTVSS | low polyreactivity
22 | QVQLVESGRGLVQAGGSLRLSCAACGRIFYRYTMGSYRQAPGKERELVAAITRGGNTYYADSVKGRFTISRDNANYTVYLQMNSLKPEDTAVYYCAKKAPSDRNNYWGQGTQVTVSS | high polyreactivity

Row | Sequence | polyreactivity (PSR sort gate)
23 | QVQLVESGGGLVQAGGSLRLSCAASGNTFVYNDMGWSRQAPGKERELVADIRYSGSTYYADSVMGRFTISRDNAKNTVYLQMNSLKPEDTAVYYCAKAYYVLSWMGYWGQGTPVTVSS | low polyreactivity
24 | QVQLVESGGGLVQAGGSLRLSCAASGSTFVYYAMGRYRQAPGKERELVAAITASGGGTYYADSVKGRFTISRDNAKNTVYLQMNSLKPEDTAVYYCNRGYDYWGQGTQVTVSS | low polyreactivity
25 | QVQLVESGGGLVQAGGSLRLSCAASGRIFYLYARGWYRQAPGKERELVATISSSGGRTYYADSVKGRFTISRDNAKNTVYLQMNSLKPEDTAVYYCNAYGEDDGPYPFPGYNYWGQGTQVTVSS | low polyreactivity
26 | QVQLVESGGGLVQAGGSLRLSCADSGSIFGVNVMGWYRQAPGKDRELVAAITSIGGRTYYADSVKGRFTISRDNAKNTVYLQMNSLKPEDTAVYYCNADYTGAEYDYWGQGTQVTVSS | low polyreactivity
27 | QVQLVESGGGLVQAGGSLRLSCAASGYTLRIYAMGWYRQAPGKERELVAAISRGGGTTRYADSVKGRFTISRDNAKNTVYLQMNSLKPEDTAVYYCNKDVYGYSRTGPRGYDYWGQGTQVTVSS | high polyreactivity
28 | QVQLVESGGGLVQAGGSLRVSCAASGRTFARYAKGWYRQAPGKERELVAVISRTGSTYYADSVKGRFTISRDNAKNTVYLQMNSLKPEDTAVYYCATVYYYLAYGWSYSDMDYWGQGTQVTVSS | high polyreactivity
29 | QVQLVESGGGLVQAGGSLRLSCAASGFTFDVNAMGWYRQAPGKERELVATISSNGGSTYYADSVKGRFTISRDNAKNTVYLQMNSLKPEDTAVYYCAADVYRLLRRYRYYYWGQGTQVTVSS | low polyreactivity
30 | QVQLEESGGGLVQAGGSLRLSCAASGRIFLWYAMGWYRQAPGKERELVAAISSNGGSTRYADSVKGRFTISRDNAKNTVYLQMNSLKPEDTALYYCNADVHWNRYPYGGNGYGYWGQGTQVTVSS | low polyreactivity
31 | QVQLVESGGGLVQAGGSLRLSCAASGITFNLYAMGWYRQAPGKERELVASINSGGSPYYADSVKGRFTISRDNAKNTVYLQMNSLKPEDTAVYYCAAETSYYYRGYWKSYDYWGQGTQVTVSS | high polyreactivity
32 | QVQLVESGGGLVQAGGSLRLSCAASGRTFRINTMGWYRQAPGKERELVATITGSGGSTYYADSVKGRFTISRDNANNTVYLQMNSLKPEDTAVYYCAAFGDQNEYDYWGQGTQVTVSS | low polyreactivity
33 | QVQLVESGGGLVQAGGSLRLSCAASGFTFQFYAMGWSRPAPGKERELVAAITWSGGSTYYADSVKGRFTISRDNAKNTVYLQMNSLKPEDTAVYYCAKDRRSYLSYIYDYWGQGTQVNVSS | high polyreactivity
34 | QVQIVESGGGFVQAGGSLRLSCAASGRIYGNTMGWYRQAHGKERELVAAITRSGVSTYYADSVKGRFTISRDNAKNTVYLQMNSLKPDDTAVYYCAAREWSGPKINPPYRYNSWGQGTQETVSS | high polyreactivity
35 | QVQLVESGAGLFQAGGSLRLSCAASGFTFNYYAMGGYIHAPGKERELVAAISRRGGSTYYADSVKGRFTISRDNAKNNVYLQMKSLKPEDTAVYYCNAASLKFTSPVRFGYWGQGTQVTVSS | high polyreactivity
36 | QVQLVESGGGLVQAGGSLRLSCAASGFTFRPNAMGWYRPAPAKERELVAAISGSGGSTYYADSVKGRFTISRDNAKNTVYLQMNSLKPEDTAVYYFAADSYYDGDYWGQGTQVTVSS | low polyreactivity
37 | QVQLVESGGGLVQAGGSLRLSCAASGSISSQYGMGWYRQAAGKERDLVATIRDGGRTNYADSVKGRFTISRDNGKNTVYLQMNSLKPEDTAVYYCAALYWYYYTWPLYDYWVQGTQVTVSS | low polyreactivity
38 | QVQLVESGGGLVQAGGSLRLSCAASGSTFQVYAMGWYRPAPRKERELVATIRRTGGSTYYADSVKGRFTISRDNAKNTVYLQMNSLKPEDTAVYYCAARTYGGIVLRLDYWGQGTQVTVSS | high polyreactivity
39 | QVQLVESGGGLVQAGGSLRLSCAASGSTYGRNARGWYRQAPGKERELVAAISSGGRTYYADSVKGRFTISRDNAKNTVYLQMNSLKPEDTAVYYCARDDYGTLVQLYGRGFNYWGQGTQVTVSS | low polyreactivity
40 | QVQLVESGGGLVQAGGSLRLSCAASGSIFYSYAMGWYRQAPGKERELVAAISWDASTYYADSVKGRFTISRDNAKNTVDLQMNSLKPEDTAVYYCNKRWFAPPPYSYVRSYDYWGQGTQVTVSS | low polyreactivity
41 | QVQHVESGGGVVQGGGSLRLSCAASLSIFYIYAMGWYRQAPGTERELVAAITRSGGSTNYADSVTGPFTFSRDNATNTVYLQMTSLQPEDTAVYYCAAAVGRPYTPTYDYWGQGTKVTVSS | low polyreactivity
42 | QVQLVESGGGLVQAGGSLRLSCAASGRIFRIYTMGWYRQAPGKERELVAAITKSGGSTSYADSVKGRFTISRDNAKNTVYLQMNSLKPEDTAVYYCNAKGWSRPPGYDYWGQGTQLTVSS | high polyreactivity
43 | QVQLVESGGGLVQAGGSLRLSCAASGFTFVDNAMGWYRQPPRKERELVAAISWTGVGSTYYADSVKGRFTISRDNAKNTDYLQMNSLKPEDTAVYYCAADGLSRGVPDEFDYWGQGTQVTVSS | low polyreactivity
